The source of these data is the RNAGym collection of RNA variant scans (doi:10.7554/elife.80360).

B1: HDV Ribozyme (parent)
chain: GGCCGGCAUGGUCCCAGCCUCCUCGCUGGCGCCGGCUGGGCAACAUUCCGAGGGGACCGUCCCCUCGGUAAUGGCGAAUGGGACCCA

This data set covers variants of B1. Kind of data set: self-cleavage, relative activity (ratio to wild type); higher = more cleavage; co-transcriptional.
In the case of GGCCGGCAUGGUCCCAGCCUCCUCGCUGGCGCCGGCUGGGCAACAUUCCGAGGGGACCGUCCCCUCGGUAAUGGCGAAUGGGUCGCA, the self-cleavage worked out at 0.208.

GGCCGGCAUGGUCCCAGCCUCCUCGCUGGCGCCGGCUGGGCAACAUUCCGAGGGGACCGUCCCCUCGGUAAUGGCGAAUGGGUCACA: the self-cleavage was 0.237. GGCCGGCAUGGUCCCAGCCUCCUCGCUGGCGCCGGCUGGGCAACAUUCCGAGGGGACCGUCCCCUCGGUAAUGGCGAAUGGCACCCC: the self-cleavage was found to be 0.28.

Regarding GGCCGGCAUGGUCCCAGCCUCCUCGCUGGCGCCGGCUGGGCAACAUUCCGAGGGGACCGUCCCCUCGGUAAUGGCGAAUGGCACCCG, the self-cleavage was found to be 0.185.

Take GGCCGGCAUGGUCCCAGCCUCCUCGCUGGCGCCGGCUGGGCAACAUUCCGAGGGGACCGUCCCCUCGGUAAUGGCGAAUGGGAACCA: the self-cleavage turned out to be 0.895. For the variant GGCCGGCAUGGUCCCAGCCUCCUCGCUGGCGCCGGCUGGGCAACAUUCCGAGGGGACCGUCCCCUCGGUAAUGGCGAAUGGGAGCCA, the self-cleavage is 0.688. The value for GGCCGGCAUGGUCCCAGCCUCCUCGCUGGCGCCGGCUGGGCAACAUUCCGAGGGGACCGUCCCCUCGGUAAUGGCGAAUGGGAGCCU was 0.842; that for GGCCGGCAUGGUCCCAGCCUCCUCGCUGGCGCCGGCUGGGCAACAUUCCGAGGGGACCGUCCCCUCGGUAAUGGCGAAUGGGGCCCC was 0.906; that for GGCCGGCAUGGUCCCAGCCUCCUCGCUGGCGCCGGCUGGGCAACAUUCCGAGGGGACCGUCCCCUCGGUAAUGGCGAAUGGCAACCA was 0.383. The value for GGCCGGCAUGGUCCCAGCCUCCUCGCUGGCGCCGGCUGGGCAACAUUCCGAGGGGACCGUCCCCUCGGUAAUGGCGAAUGGUACCCG was 0.387. As to GGCCGGCAUGGUCCCAGCCUCCUCGCUGGCGCCGGCUGGGCAACAUUCCGAGGGGACCGUCCCCUCGGUAAUGGCGAAUGGGAACAA, the self-cleavage is 0.712. For GGCCGGCAUGGUCCCAGCCUCCUCGCUGGCGCCGGCUGGGCAACAUUCCGAGGGGACCGUCCCCUCGGUAAUGGCGAAUGGUAUCCA the value was 0.133; for GGCCGGCAUGGUCCCAGCCUCCUCGCUGGCGCCGGCUGGGCAACAUUCCGAGGGGACCGUCCCCUCGGUAAUGGCGAAUGGUAACCA, 0.261. With GGCCGGCAUGGUCCCAGCCUCCUCGCUGGCGCCGGCUGGGCAACAUUCCGAGGGGACCGUCCCCUCGGUAAUGGCGAAUGUGACUCA, the self-cleavage amounted to 0.31. For the variant GGCCGGCAUGGUCCCAGCCUCCUCGCUGGCGCCGGCUGGGCAACAUUCCGAGGGGACCGUCCCCUCGGUAAUGGCGAAUGUGACACA, the self-cleavage amounted to 0.389. For GGCCGGCAUGGUCCCAGCCUCCUCGCUGGCGCCGGCUGGGCAACAUUCCGAGGGGACCGUCCCCUCGGUAAUGGCGAAUGUGACGCA the value was 0.212; for GGCCGGCAUGGUCCCAGCCUCCUCGCUGGCGCCGGCUGGGCAACAUUCCGAGGGGACCGUCCCCUCGGUAAUGGCGAAUGGGCCGCA, 0.175; for GGCCGGCAUGGUCCCAGCCUCCUCGCUGGCGCCGGCUGGGCAACAUUCCGAGGGGACCGUCCCCUCGGUAAUGGCGAAUGGGCCUCA, 0.268.

In the case of GGCCGGCAUGGUCCCAGCCUCCUCGCUGGCGCCGGCUGGGCAACAUUCCGAGGGGACCGUCCCCUCGGUAAUGGCGAAUGGGCCACA, the self-cleavage amounted to 0.534.

As to GGCCGGCAUGGUCCCAGCCUCCUCGCUGGCGCCGGCUGGGCAACAUUCCGAGGGGACCGUCCCCUCGGUAAUGGCGAAUGGGCCCCG, the self-cleavage worked out at 0.302. With GGCCGGCAUGGUCCCAGCCUCCUCGCUGGCGCCGGCUGGGCAACAUUCCGAGGGGACCGUCCCCUCGGUAAUGGCGAAUGGGGCACA, the self-cleavage turned out to be 0.677. For the variant GGCCGGCAUGGUCCCAGCCUCCUCGCUGGCGCCGGCUGGGCAACAUUCCGAGGGGACCGUCCCCUCGGUAAUGGCGAAUGGGGCGCA, the self-cleavage was 1.12. As to GGCCGGCAUGGUCCCAGCCUCCUCGCUGGCGCCGGCUGGGCAACAUUCCGAGGGGACCGUCCCCUCGGUAAUGGCGAAUGGUACACA, the self-cleavage was 0.256. The value for GGCCGGCAUGGUCCCAGCCUCCUCGCUGGCGCCGGCUGGGCAACAUUCCGAGGGGACCGUCCCCUCGGUAAUGGCGAAUGGUACGCA was 0.446; that for GGCCGGCAUGGUCCCAGCCUCCUCGCUGGCGCCGGCUGGGCAACAUUCCGAGGGGACCGUCCCCUCGGUAAUGGCGAAUGGUACUCA was 0.451. The value for GGCCGGCAUGGUCCCAGCCUCCUCGCUGGCGCCGGCUGGGCAACAUUCCGAGGGGACCGUCCCCUCGGUAAUGGCGAAUGGUACCAA was 0.793; that for GGCCGGCAUGGUCCCAGCCUCCUCGCUGGCGCCGGCUGGGCAACAUUCCGAGGGGACCGUCCCCUCGGUAAUGGCGAAUGGGUCCCG was 0.531. The value for GGCCGGCAUGGUCCCAGCCUCCUCGCUGGCGCCGGCUGGGCAACAUUCCGAGGGGACCGUCCCCUCGGUAAUGGCGAAUGGGUCCCU was 0.507. In the case of GGCCGGCAUGGUCCCAGCCUCCUCGCUGGCGCCGGCUGGGCAACAUUCCGAGGGGACCGUCCCCUCGGUAAUGGCGAAUGGGUCCCC, the self-cleavage was found to be 0.751. For the variant GGCCGGCAUGGUCCCAGCCUCCUCGCUGGCGCCGGCUGGGCAACAUUCCGAGGGGACCGUCCCCUCGGUAAUGGCGAAUGUGAUCCA, the self-cleavage came to 0.228. For GGCCGGCAUGGUCCCAGCCUCCUCGCUGGCGCCGGCUGGGCAACAUUCCGAGGGGACCGUCCCCUCGGUAAUGGCGAAUGGAUCCCA, the self-cleavage worked out at 0.376. For GGCCGGCAUGGUCCCAGCCUCCUCGCUGGCGCCGGCUGGGCAACAUUCCGAGGGGACCGUCCCCUCGGUAAUGGCGAAUGGGAGGCA the value was 0.26; for GGCCGGCAUGGUCCCAGCCUCCUCGCUGGCGCCGGCUGGGCAACAUUCCGAGGGGACCGUCCCCUCGGUAAUGGCGAAUGGCACGCA, 0.119. Regarding GGCCGGCAUGGUCCCAGCCUCCUCGCUGGCGCCGGCUGGGCAACAUUCCGAGGGGACCGUCCCCUCGGUAAUGGCGAAUGGCACUCA, the self-cleavage amounted to 0.18. For the variant GGCCGGCAUGGUCCCAGCCUCCUCGCUGGCGCCGGCUGGGCAACAUUCCGAGGGGACCGUCCCCUCGGUAAUGGCGAAUGGCACACA, the self-cleavage came to 0.147. With GGCCGGCAUGGUCCCAGCCUCCUCGCUGGCGCCGGCUGGGCAACAUUCCGAGGGGACCGUCCCCUCGGUAAUGGCGAAUGGUCCCCA, the self-cleavage came out at 0.18. The value for GGCCGGCAUGGUCCCAGCCUCCUCGCUGGCGCCGGCUGGGCAACAUUCCGAGGGGACCGUCCCCUCGGUAAUGGCGAAUGGAACCAA was 0.729; that for GGCCGGCAUGGUCCCAGCCUCCUCGCUGGCGCCGGCUGGGCAACAUUCCGAGGGGACCGUCCCCUCGGUAAUGGCGAAUGGAACCUA was 0.522; that for GGCCGGCAUGGUCCCAGCCUCCUCGCUGGCGCCGGCUGGGCAACAUUCCGAGGGGACCGUCCCCUCGGUAAUGGCGAAUGGGGCCCA was 0.806.

As for GGCCGGCAUGGUCCCAGCCUCCUCGCUGGCGCCGGCUGGGCAACAUUCCGAGGGGACCGUCCCCUCGGUAAUGGCGAAUGGGUCCCA, the self-cleavage turned out to be 0.523. In the case of GGCCGGCAUGGUCCCAGCCUCCUCGCUGGCGCCGGCUGGGCAACAUUCCGAGGGGACCGUCCCCUCGGUAAUGGCGAAUGGGCCCCA, the self-cleavage amounted to 0.458. The value for GGCCGGCAUGGUCCCAGCCUCCUCGCUGGCGCCGGCUGGGCAACAUUCCGAGGGGACCGUCCCCUCGGUAAUGGCGAAUGGGCCCGA was 0.254; that for GGCCGGCAUGGUCCCAGCCUCCUCGCUGGCGCCGGCUGGGCAACAUUCCGAGGGGACCGUCCCCUCGGUAAUGGCGAAUGGGCCCUA was 0.376; that for GGCCGGCAUGGUCCCAGCCUCCUCGCUGGCGCCGGCUGGGCAACAUUCCGAGGGGACCGUCCCCUCGGUAAUGGCGAAUGGAACCCC was 0.583. The value for GGCCGGCAUGGUCCCAGCCUCCUCGCUGGCGCCGGCUGGGCAACAUUCCGAGGGGACCGUCCCCUCGGUAAUGGCGAAUGGAACCCU was 0.443. The value for GGCCGGCAUGGUCCCAGCCUCCUCGCUGGCGCCGGCUGGGCAACAUUCCGAGGGGACCGUCCCCUCGGUAAUGGCGAAUGGAACCCG was 0.342; that for GGCCGGCAUGGUCCCAGCCUCCUCGCUGGCGCCGGCUGGGCAACAUUCCGAGGGGACCGUCCCCUCGGUAAUGGCGAAUGUAACCCA was 0.277; that for GGCCGGCAUGGUCCCAGCCUCCUCGCUGGCGCCGGCUGGGCAACAUUCCGAGGGGACCGUCCCCUCGGUAAUGGCGAAUGUUACCCA was 0.211. Turning to GGCCGGCAUGGUCCCAGCCUCCUCGCUGGCGCCGGCUGGGCAACAUUCCGAGGGGACCGUCCCCUCGGUAAUGGCGAAUGUGACCGA, the self-cleavage worked out at 0.27.

As to GGCCGGCAUGGUCCCAGCCUCCUCGCUGGCGCCGGCUGGGCAACAUUCCGAGGGGACCGUCCCCUCGGUAAUGGCGAAUGUGACCUA, the self-cleavage was determined as 0.767. The value for GGCCGGCAUGGUCCCAGCCUCCUCGCUGGCGCCGGCUGGGCAACAUUCCGAGGGGACCGUCCCCUCGGUAAUGGCGAAUGGGAAGCA was 0.519; that for GGCCGGCAUGGUCCCAGCCUCCUCGCUGGCGCCGGCUGGGCAACAUUCCGAGGGGACCGUCCCCUCGGUAAUGGCGAAUGGAACGCA was 0.339. The value for GGCCGGCAUGGUCCCAGCCUCCUCGCUGGCGCCGGCUGGGCAACAUUCCGAGGGGACCGUCCCCUCGGUAAUGGCGAAUGGGAACCG was 0.61. The value for GGCCGGCAUGGUCCCAGCCUCCUCGCUGGCGCCGGCUGGGCAACAUUCCGAGGGGACCGUCCCCUCGGUAAUGGCGAAUGGCACCGA was 0.194; that for GGCCGGCAUGGUCCCAGCCUCCUCGCUGGCGCCGGCUGGGCAACAUUCCGAGGGGACCGUCCCCUCGGUAAUGGCGAAUGGGGCCAA was 0.941; that for GGCCGGCAUGGUCCCAGCCUCCUCGCUGGCGCCGGCUGGGCAACAUUCCGAGGGGACCGUCCCCUCGGUAAUGGCGAAUGGGGCCUA was 1.08. Turning to GGCCGGCAUGGUCCCAGCCUCCUCGCUGGCGCCGGCUGGGCAACAUUCCGAGGGGACCGUCCCCUCGGUAAUGGCGAAUGGGGCCGA, the self-cleavage worked out at 0.807.

For GGCCGGCAUGGUCCCAGCCUCCUCGCUGGCGCCGGCUGGGCAACAUUCCGAGGGGACCGUCCCCUCGGUAAUGGCGAAUGGAAACCA, the self-cleavage was 0.399. For GGCCGGCAUGGUCCCAGCCUCCUCGCUGGCGCCGGCUGGGCAACAUUCCGAGGGGACCGUCCCCUCGGUAAUGGCGAAUGGGGGCCA, the self-cleavage is 0.95. The value for GGCCGGCAUGGUCCCAGCCUCCUCGCUGGCGCCGGCUGGGCAACAUUCCGAGGGGACCGUCCCCUCGGUAAUGGCGAAUGGGGACCA was 1.02; that for GGCCGGCAUGGUCCCAGCCUCCUCGCUGGCGCCGGCUGGGCAACAUUCCGAGGGGACCGUCCCCUCGGUAAUGGCGAAUGGGAGCAA was 0.764; that for GGCCGGCAUGGUCCCAGCCUCCUCGCUGGCGCCGGCUGGGCAACAUUCCGAGGGGACCGUCCCCUCGGUAAUGGCGAAUGGGAGCUA was 0.675. The value for GGCCGGCAUGGUCCCAGCCUCCUCGCUGGCGCCGGCUGGGCAACAUUCCGAGGGGACCGUCCCCUCGGUAAUGGCGAAUGGCUCCCA was 0.237; that for GGCCGGCAUGGUCCCAGCCUCCUCGCUGGCGCCGGCUGGGCAACAUUCCGAGGGGACCGUCCCCUCGGUAAUGGCGAAUGGCCCCCA was 0.284.
